Columns and labels:
[1] = biological target: MBS (myosin-binding subunit of myosin phosphatase), endogenous in MDCK cells (dog (endogenous in MDCK)); experiment: co-IP
[2] = biological target: GST-moesin (1–323 aa) (human) (UniProt P26038); experiment: pull-down
[3] = biological target: HA-full-length moesin (1–577 aa) (mouse) (UniProt P26041); experiment: pull-down
Sequence of UniProt P26041 (P26041 whole entry, the tested form may be a part): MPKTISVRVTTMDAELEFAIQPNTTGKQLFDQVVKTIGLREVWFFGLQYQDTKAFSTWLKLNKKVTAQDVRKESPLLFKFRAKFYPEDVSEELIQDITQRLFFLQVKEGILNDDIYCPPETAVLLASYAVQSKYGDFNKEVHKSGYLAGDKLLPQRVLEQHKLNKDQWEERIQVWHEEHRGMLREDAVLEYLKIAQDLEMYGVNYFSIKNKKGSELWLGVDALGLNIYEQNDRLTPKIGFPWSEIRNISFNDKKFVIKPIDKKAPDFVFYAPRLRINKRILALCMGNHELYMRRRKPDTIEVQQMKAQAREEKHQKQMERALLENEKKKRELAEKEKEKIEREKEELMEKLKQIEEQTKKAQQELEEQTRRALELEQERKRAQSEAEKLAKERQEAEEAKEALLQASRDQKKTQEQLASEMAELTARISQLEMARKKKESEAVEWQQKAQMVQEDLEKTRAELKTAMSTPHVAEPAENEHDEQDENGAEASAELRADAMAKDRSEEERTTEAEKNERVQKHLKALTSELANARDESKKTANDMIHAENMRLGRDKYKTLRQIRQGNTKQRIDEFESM

Sequence of UniProt P26038 (P26038 1-323): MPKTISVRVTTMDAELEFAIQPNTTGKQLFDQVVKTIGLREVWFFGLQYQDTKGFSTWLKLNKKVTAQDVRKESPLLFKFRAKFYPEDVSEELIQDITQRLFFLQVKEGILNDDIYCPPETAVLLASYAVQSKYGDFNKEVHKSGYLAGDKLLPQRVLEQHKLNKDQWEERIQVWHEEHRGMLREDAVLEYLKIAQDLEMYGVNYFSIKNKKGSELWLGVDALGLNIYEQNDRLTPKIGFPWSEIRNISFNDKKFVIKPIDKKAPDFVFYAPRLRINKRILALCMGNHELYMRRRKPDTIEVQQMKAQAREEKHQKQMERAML

Row | Substance | percent of total moesin recovered with immunoprecipitated MBS [1] [%] | stoichiometry N (moesin per MBS) [1] | Kd [2] [nM] | stoichiometry N [2] | Kd [3] [nM]
1 | moesin, endogenous in MDCK cells (natural protein) | 0.5 | 0.33 | – | – | –
2 | recombinant full-length rat MBS (1–976 aa), myosin-binding subunit of myosin phosphatase (natural protein) | – | – | 260 | 0.4 | 1230
